Biological target: GFP-αA-crystallin (UniProt P02489 2-173)
Assay: cell-based or functional assay

Chain of GFP-αA-crystallin (P02489 2-173): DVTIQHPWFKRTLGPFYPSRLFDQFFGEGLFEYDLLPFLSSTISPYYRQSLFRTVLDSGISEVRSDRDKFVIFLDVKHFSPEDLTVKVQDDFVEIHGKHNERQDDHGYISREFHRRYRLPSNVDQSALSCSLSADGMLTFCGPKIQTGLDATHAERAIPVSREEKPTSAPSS

B1: RED-αB-crystallin (natural protein, UniProt P02511 2-175, looked up)
chain: DIAIHHPWIRRPFFPFHSPSRLFDQFFGEHLLESDLFPTSTSLSPFYLRPPSFLRAPSWFDTGLSEMRLEKDRFSVNLDVKHFSPEELKVKVLGDVIEVHGKHEERQDEHGFISREFHRKYRIPADVDPLTITSSLSSDGVLTVNGPRKQVSGPERTIPITREEKPAVTAAPKK
  percentage of HeLa cells with protein aggregates, cotransfection of GFP-αA- and RED-αB-crystallin against RED-αB-crystallin alone (confocal microscopy): > 4 fold

Source: paper PMC2045701, “Confocal fluorescence resonance energy transfer microscopy study of protein-protein interactions of lens crystallins in living cells” (Molecular Vision, 2007)
